First the molecules themselves.
B1: WDR41 (parent)
chain: HVGELIIWDALDWTMQAYERNFWD
B2: NR2F2 (parent)
chain: NIPFFPDLQITDQVALLRLTWSEL

Drawing on the supplement of paper PMC10567573, this text covers protein stability index for 94 variants.
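Note: lentivirally expressed fusions sorted by FACS into six bins by GFP to DsRed ratio, PSI derived from sequencing read proportions per bin multiplied by bin number.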

Variants of B1 are the subject of one series. The experiment in a line: protein stability index of a GFP-peptide fusion (GPS, HEK-293T) (PSI 1-6); higher = more stable. The conditions noted are these: c terminus: a fixed tail appended.
HVGELIIWDALDWTMIAYERNFWD: the protein stability index is 2.45. Same read-out and setting: to HVGELIIWDALDWTMMAYERNFWD belongs 2.63; to HVGELIIWDALDWTMQAYVRNFWD, 1.87; to HVGELIIWDALDWTMQAYNRNFWD, 1.91. Still for that read-out and setting: under HVGELIIWDALDWTMQAYIRNFWD stands 2.09; under HVGELIIWDALDWTMQAYCRNFWD, 2.17; under HVGELIIWDALDWTMQAYQRNFWD, 3.24. On the same count and under the same terms, under HVGELIIWDALDWTMQAYDRNFWD stands 1.67.

Take HVGELIIWDALDWTMQAYHRNFWD: the protein stability index is 2.77.

Take HVGELIIWDALDWTMQAYARNFWD: the protein stability index is 1.64. Turning to HVGELIIWDALDWTMQAYPRNFWD, the protein stability index is 1.72. For HVGELIIWDALDWTMQAYTRNFWD, the protein stability index is 1.44. Same read-out and setting: under HVGELIIWDALDWTMQAYERNFID stands 2.83; under HVGELIIWDALDWTMQAYERNFLD, 1.8.

Turning to HVGELIIWDALDWTMQAYERNFDD, the protein stability index came out at 1.89. On the same count and under the same terms, under HVGELIIWDALDWTMQAYERNFVD stands 3.03; under HVGELIIWDALDWTMQAYERNFED, 1.72. The same measure, in the same setting: to HVGELIIWDALDWTMQAYERNFCD belongs 1.71. HVGELIIWDALDWTMQAYERNFND: the protein stability index amounted to 1.71. On the same count and under the same terms, under HVGELIIWDALDWTMQAYERNFKD stands 1.39; under HVGELIIWDALDWTMQAYERNFSD, 1.82.

For the variant HVGELIIWDALDWTMQAYERNFPD, the protein stability index was 1.45.

For HVGELIIWDALDWTMQAYERNFGD, the protein stability index came out at 2.62. Still for that read-out and setting: under HVGELIIWDALDWTMQAYERNFWE stands 3.24; under HVGELIIWDALDWTMQAYERNFWK, 1.4; under HVGELIIWDALDWTMQAYERNFWH, 4.96. Turning to HVGELIIWDALDWTMQAYERNFWI, the protein stability index is 3.06. On the same count and under the same terms, to HVGELIIWDALDWTMQTYERNFWD belongs 1.74. The same measure, in the same setting: under HVGELIIWDALDWTMQGYERNFWD stands 1.81; under HVGELIIWDALDWTMQCYERNFWD, 2.5; under HVGELIIWDALDWTMQWYERNFWD, 3.37.

As for HVGELIIWDALDWTMQNYERNFWD, the protein stability index was determined as 4.42. Same read-out and setting: to HVGELIIWDALDWTMQHYERNFWD belongs 1.63. Consider HVGELIIWDALDWTMQIYERNFWD, for which the protein stability index came to 1.15. For the variant HVGELIIWDALDWTMQKYERNFWD, the protein stability index was 2.09. Take HVGELIIWDALDWTMQPYERNFWD: the protein stability index turned out to be 1.76.

HVGELIIWDALDWTMQFYERNFWD: the protein stability index amounted to 3.37. Take HVGELIIWDALDWTMQEYERNFWD: the protein stability index amounted to 2.26. Consider HVGELIIWDALDWTMQANERNFWD, for which the protein stability index was determined as 2.18. Same read-out and setting: to HVGELIIWDALDWTMQACERNFWD belongs 3.15. Still for that read-out and setting: under HVGELIIWDALDWTMQARERNFWD stands 2.81; under HVGELIIWDALDWTMQAAERNFWD, 3.71; under HVGELIIWDALDWTMQAEERNFWD, 1.12. Same read-out and setting: to HVGELIIWDALDWTMQAHERNFWD belongs 1.6. Regarding HVGELIIWDALDWTMQAKERNFWD, the protein stability index worked out at 2.17. Still for that read-out and setting: to HVGELIIWDALDWTMQASERNFWD belongs 1.07. Same read-out and setting: under HVGELIIWDALDWTMQAYEREFWD stands 2.14; under HVGELIIWDALDWTMQAYERIFWD, 2.9. Same read-out and setting: to HVGELIIWDALDWTMQAYERSFWD belongs 2.11; to HVGELIIWDALDWTMQAYERTFWD, 2.15. Regarding HVGELIIWDALDWTMQAYERDFWD, the protein stability index turned out to be 1.87.

With HVGELIIWDALDWTMQAYERGFWD, the protein stability index came out at 2.56. The same measure, in the same setting: under HVGELIIWDALDWTMQAYERLFWD stands 3. On the same count and under the same terms, to HVGELIIWDALDWTMQAYERMFWD belongs 3.52; to HVGELIIWDALDWTMQAYERQFWD, 2.87. Same read-out and setting: under HVGELIIWDALDWTMQAYERNLWD stands 2.35; under HVGELIIWDALDWTMQAYERNEWD, 3.79; under HVGELIIWDALDWTMQAYERNPWD, 1.75.

With HVGELIIWDALDWTMQAYERNTWD, the protein stability index is 3.49. Same read-out and setting: to HVGELIIWDALDWTMQAYERNGWD belongs 2.8; to HVGELIIWDALDWTMQAYERNMWD, 2.71. As to HVGELIIWDALDWTMQAYERNKWD, the protein stability index was 1.41. On the same count and under the same terms, under HVGELIIWDALDWTMQAYERNSWD stands 1.57; under HVGELIIWDALDWTMQAYERNWWD, 1.74. Consider HVGELIIWDALDWTMQAYECNFWD, for which the protein stability index amounted to 1.24. For HVGELIIWDALDWTMQAYEKNFWD, the protein stability index was determined as 1.5.

In the case of HVGELIIWDALDWTMQAYESNFWD, the protein stability index was determined as 1.56. Same read-out and setting: to HVGELIIWDALDWTMQAYEPNFWD belongs 2.05; to HVGELIIWDALDWTMQAYEGNFWD, 1.75; to HVGELIIWDALDWTMQAYEANFWD, 1.32. On to HVGELIIWDALDWTMQAYELNFWD, for which the protein stability index was determined as 3.16. Same read-out and setting: under HVGELIIWDALDWTMQAYETNFWD stands 3.97; under HVGELIIWDALDWTMQAYEENFWD, 1.46. On to HVGELIIWDALDWTMQAYENNFWD, for which the protein stability index came out at 2.98.

The variants in a further series derive from B2. The series is described as above. The note with it: c terminus: a fixed tail appended.
Turning to NFPFFPDLQITDQVALLRLTWSEL, the protein stability index was 2.28.

Regarding NCPFFPDLQITDQVALLRLTWSEL, the protein stability index was 2.42. As for NAPFFPDLQITDQVALLRLTWSEL, the protein stability index was 1.05.

NDPFFPDLQITDQVALLRLTWSEL: the protein stability index turned out to be 2.85. As for NEPFFPDLQITDQVALLRLTWSEL, the protein stability index turned out to be 2.07. Same read-out and setting: under PIPFFPDLQITDQVALLRLTWSEL stands 2.45.

Consider EIPFFPDLQITDQVALLRLTWSEL, for which the protein stability index was found to be 2.36. Still for that read-out and setting: under SIPFFPDLQITDQVALLRLTWSEL stands 1.75; under TIPFFPDLQITDQVALLRLTWSEL, 2.02; under HIPFFPDLQITDQVALLRLTWSEL, 2.44. On the same count and under the same terms, to DIPFFPDLQITDQVALLRLTWSEL belongs 3.27; to FIPFFPDLQITDQVALLRLTWSEL, 3.02; to CIPFFPDLQITDQVALLRLTWSEL, 2.81. On the same count and under the same terms, under QIPFFPDLQITDQVALLRLTWSEL stands 1.1. For the variant YIPFFPDLQITDQVALLRLTWSEL, the protein stability index worked out at 2.74. For WIPFFPDLQITDQVALLRLTWSEL, the protein stability index came out at 2.72.

MIPFFPDLQITDQVALLRLTWSEL: the protein stability index is 3.01. The same measure, in the same setting: under LIPFFPDLQITDQVALLRLTWSEL stands 2.23. The same measure, in the same setting: to KIPFFPDLQITDQVALLRLTWSEL belongs 2.26; to RIPFFPDLQITDQVALLRLTWSEL, 4.3.
